Experiments:
[1] = molecular target: T1, hIL-4R on cells (STAT6-transfected HEK293, TF1, TF1/A12) (human, UniProt P24394 26-825); experiment: cell-based or functional assay
T1 sequence (looked up): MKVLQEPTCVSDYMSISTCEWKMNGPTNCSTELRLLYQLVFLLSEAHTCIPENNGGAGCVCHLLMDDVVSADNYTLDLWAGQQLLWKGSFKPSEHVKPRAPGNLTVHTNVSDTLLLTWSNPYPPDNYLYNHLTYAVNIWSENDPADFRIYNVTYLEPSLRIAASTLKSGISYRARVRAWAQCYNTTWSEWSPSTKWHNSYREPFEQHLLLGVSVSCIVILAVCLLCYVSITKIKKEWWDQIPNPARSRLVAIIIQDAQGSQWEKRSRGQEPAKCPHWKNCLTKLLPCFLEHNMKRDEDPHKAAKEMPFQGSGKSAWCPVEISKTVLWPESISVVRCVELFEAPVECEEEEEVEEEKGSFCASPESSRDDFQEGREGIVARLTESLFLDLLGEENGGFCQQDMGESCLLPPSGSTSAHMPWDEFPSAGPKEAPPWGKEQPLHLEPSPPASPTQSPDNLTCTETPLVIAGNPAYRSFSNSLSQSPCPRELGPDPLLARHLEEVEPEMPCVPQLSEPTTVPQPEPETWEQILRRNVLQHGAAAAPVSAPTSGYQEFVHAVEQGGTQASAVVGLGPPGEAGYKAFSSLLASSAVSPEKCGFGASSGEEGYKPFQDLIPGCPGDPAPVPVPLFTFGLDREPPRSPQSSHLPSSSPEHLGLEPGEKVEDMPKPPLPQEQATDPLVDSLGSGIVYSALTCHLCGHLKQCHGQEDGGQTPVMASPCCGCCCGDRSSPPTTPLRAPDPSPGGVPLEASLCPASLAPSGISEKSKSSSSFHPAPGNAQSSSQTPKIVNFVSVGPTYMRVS

[2] = molecular target: T1, hIL-4R on cells (STAT6-transfected …); experiment: cell-based or functional assay; remark: listed apart in the source
mouse IL-4R = molecular target: T2, mouse IL-4R (mouse, UniProt P16382 26-233, limits assumed); experiment: binding affinity test of Example 2 (method not restated)
T2 sequence (looked up): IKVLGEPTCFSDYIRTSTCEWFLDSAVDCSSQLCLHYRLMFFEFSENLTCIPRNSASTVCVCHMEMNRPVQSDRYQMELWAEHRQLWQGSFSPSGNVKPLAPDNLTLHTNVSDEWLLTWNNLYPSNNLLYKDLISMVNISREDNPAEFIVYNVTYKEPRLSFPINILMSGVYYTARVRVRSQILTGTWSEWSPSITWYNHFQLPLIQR

[3] = molecular target: T3, monomeric hIL-4R (R&D Systems) (human, UniProt P24394 26-231); experiment: SPR (BIAcore 2000); antibody captured, monomeric hIL-4R injected
T3 construct: Bought (R&D Systems); also called hIL-4R monomer
T3 sequence: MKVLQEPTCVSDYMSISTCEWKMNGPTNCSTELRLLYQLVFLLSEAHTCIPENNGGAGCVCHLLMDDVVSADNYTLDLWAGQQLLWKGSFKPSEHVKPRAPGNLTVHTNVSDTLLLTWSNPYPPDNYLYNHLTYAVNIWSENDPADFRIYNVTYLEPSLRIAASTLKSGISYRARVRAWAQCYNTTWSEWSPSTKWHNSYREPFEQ
Description: (§1) Binding affinity (KD) of selected antibodies with respect to hIL-4R was determined using a real-time biosensor surface plasmon resonance assay (BIAcore™ 2000). Briefly, antibody was captured on a goat anti-mouse (GAM) IgG polyclonal antibody surface created through direct chemical coupling of the GAM IgG to a BIAcore™ chip to form a captured antibody surface. […] Binding of antigen to antibody and dissociation of the bound complex, were monitored in real time. Equilibrium dissociation constants (KD) and dissociation rate constants were ascertained by performing kinetic analysis using BIA evaluation software. BIA evaluation software was also used to calculate the half-life of antigen/antibody complex dissociation (T_{1/2}). […] The binding affinity of anti-hIL-4R antibodies to either mouse or monkey (Macaca fascicularis) IL-4R was also tested.

dimeric hIL-4R-hFc [4] = molecular target: T4, dimeric hIL-4R-hFc (human, UniProt P24394 26-232); experiment: SPR (BIAcore 2000); antibody captured, dimeric hIL-4R-hFc injected
T4 construct: also called hIL-4R-Fc; not shown: human Fc (hFc)
T4 sequence: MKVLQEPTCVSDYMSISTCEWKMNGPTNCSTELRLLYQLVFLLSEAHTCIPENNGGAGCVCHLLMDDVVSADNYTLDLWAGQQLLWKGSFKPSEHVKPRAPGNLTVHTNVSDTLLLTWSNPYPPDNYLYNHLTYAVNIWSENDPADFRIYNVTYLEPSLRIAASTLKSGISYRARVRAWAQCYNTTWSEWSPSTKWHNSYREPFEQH
Description: as §1

dimeric hIL-4R-hFc [5] = molecular target: T4, dimeric hIL-4R-hFc; experiment: ELISA; antibody titrated against 25 pM hIL-4R-Fc, free receptor caught on hIL-4 plate
Description: Concentration of free hIL-4R-Fc (no antibody bound) was determined using a hIL-4R-specific sandwich ELISA. […] After a one-hour incubation at room temperature, the detection plate was washed and plate-bound hIL-4R-hFc was detected using HRP conjugated goat anti-hFc polyclonal antibodies and developed using colorimetric substrates such as BD OptEIA™ (BD Biosciences Pharmingen, San Diego, Calif.). After the reaction was stopped with 1 M phosphoric or sulfuric acid, absorbances at 450 nm were recorded and the data were analyzed using GraphPad™ Prism software.

dimeric hIL-4R-hFc [6] = molecular target: T4, dimeric hIL-4R-hFc; experiment: SPR; reduction of hIL-4 (50 nM) binding to captured hIL-4R-hFc after antibody; competitor hIL-4
Excerpt: Purified hIL-4R-hFc molecules were captured by goat anti-human IgG polyclonal antibody immobilized on CM-5 to a density of 260 RU, to prepare a receptor-coated surface.

| Binder | STAT6 Bioassay IC50 (HEK293 STAT6 luciferase, 10 pM hIL-4) [1] [nM] | TF1/A12 Bioassay IC50 (proliferation, 20 pM hIL-4) [1] [nM] | STAT6 Bioassay IC50 (HEK293 STAT6 luciferase, 40 pM hIL-13) [2] [nM] | binding result (mouse IL-4R) | Kd [3] [nM] | T1/2 monomeric [3] [h] | Kd (dimeric hIL-4R-hFc [4]) [nM] | T1/2 dimeric (dimeric hIL-4R-hFc [4]) [h] | IC50 (dimeric hIL-4R-hFc [5]) [nM] | % Inhibition (BIAcore) (dimeric hIL-4R-hFc [6]) [%] |
| --- | --- | --- | --- | --- | --- | --- | --- | --- | --- | --- |
| VAB 1H1-2 (antibody, V domains shown, Apparently tested with mouse constant region (anti-mouse IgG capture/detection)) VH: QVQLVQSGAEVKKPGASVKVSCKASGYTFTSYGISWVRQAPGQGLEWMGWISVYNGNTNYAQKLQGRVTMTTDTSTSTAYMDLRSLRSDDAAVYYCARGSGYDFDYWGQGTLVTVSS VL: AIQMTQSPSSLSASVGDRVTITCRASQGIRNALGWYQQKPGKAPKLLIYAASSLQSGVPSRFSGSGSGTDFTLTISSLQSEDFATYYCLQDYNYPYTFGQGTKLEIK | > 10 | > 50 | > 10 | no binding | 34.9 | 0.133 | 0.139 | 8.2 | 0.146 | 78 |
| VAB 6C10-14 (antibody, V domains shown, Apparently tested with mouse constant region (anti-mouse IgG capture/detection)) VH: QVQLVQSGAEVKKPGASVKVSCKASGYTFTNYGLTWVRQAPGRGLEWMGWISVYNGNTNYAQTLKGRVTMTTDTSTSTAYMELKSLRSDDTAVYYCARGSGYDFDYWGQGTLVTVSS VL: AIQMTQSPSSLSASVGDRVAITCRASQDIRNDLGWYQQKPGKAPKLLIHTASSLQSGVPSRFSGSGSGTDFTLTISNLQPEDFATYYCLQDNSYPYTFGQGTKLEIN | > 10 | 23 | > 10 | no binding | 1.77 | 1.22 | 0.286 | 6.2 | 0.441 | 79 |
| VX 4E7-9 (antibody, V domains shown, 387/389; Apparently tested with mouse constant region (anti-mouse IgG capture/detection)) VH: QVQLVQSGAEVKKPGASVKVSCKASGYTFTNYGISWVRQAPGQGLEWMGWISVYNGKTNYAQKLQGRVTMTTDTSTTTAYMEMRSLRSDDTAVYYCARGSGYDLDYWGQGTLVSVSS VL: AIQMTQSPSSLSASVGDRVTITCRASQGIRNALGWYQQKPGKAPKLLIYAASSLQSGVPSRFSGSGSGTDFTLTFSSLQPEDFATYYCLQDFNYPYTFGQGTKLEIK | 7.9 | 10 | 6.3 | no binding | 1.43 | 0.8 | 0.111 | 19.1 | 0.118 | 79 |
| VAB 11G8-1 (antibody, V domains shown, Apparently tested with mouse constant region (anti-mouse IgG capture/detection)) VH: QVQLVQSGAEVKKPGASVKVSCKASGYTFTNYGISWVRQAPGQGLEWMGWISVYNGHTNYAQKLQGRVTMTTDTSTSTAYMELRSLRSDDTAVYYCARGSGYDFDSWGQGTLVTVSS VL: AIQMTQSSSSLSASVGDRVTITCRASQAIRNALGWYQQKPGKAPKVLIYAASSLQSGIPSRFSGSGSGTDFTLTISSLQPEDFATYYCLQDYDYPYTFGQGTKLEIK | > 10 | > 50 | 8.8 | no binding | 1.63 | 0.417 | 0.108 | 8.7 | 0.24 | 77 |
| VAB 8G10-1 (antibody, V domains shown, Apparently tested with mouse constant region (anti-mouse IgG capture/detection)) VH: QVQLVQSGPEVKKPGASVKVSCKASGYTFTNYGISWVRQAPGQGLEWMGWISVYNGNINYAQKLQGRVTMTTDTSTSTAYMDLRSLRSDDTAVYYCARGSGYDFDYWGQGTLVTVSS VL: AIQMTQSPSSLSASVGDRVTITCRASQDIRNALGWYQQKPGKAPKLLIYAASSLQSGVPSRFSGSASGTDFTLTISSLQPEDFAAYYCLQDYNYPYTFGQGTKLEIK | > 10 | > 50 | > 10 | no binding | 7.71 | 0.467 | 5.51 | 4.1 | 0.244 | 74 |
| VAB 4D5-3 (antibody, V domains shown, Apparently tested with mouse constant region (anti-mouse IgG capture/detection)) VH: QVQLVQSGPEVKKPGASVKVSCKASGYTFTNYGISWVRQAPGQGLEWMGWISVYNGKTNYAQKFQGRVTMTTDTSTSTAYMDLRSLRSDDTAVYYCARGSGYDFDYWGQGTLVTVSS VL: AIQMTQSPSSLSASVGDRVTITCRASQGIRNALGWYQQKPGKAPKLLIFASSSLQSGVPSRFSGSGSGTDFTLTIRSLQPEDFAAYYCLQDYNYPYTFGQGTKLEIK | 3.8 | 21 | 3.3 | no binding | 2.02 | 0.583 | 0.032 | 20.4 | 0.24 | 82 |
